Measurements: patent US20250026860A1 (NATIONAL UNIVERSITY CORPORATION OKAYAMA UNIVERSITY, published 2025)

Assays:
Experiment in all cases: ELISA, albumin preparation immobilized on 96-well microplate
[1] = target: bovine serum albumin protein adduct with 4-HNE (bovine) (UniProt P02769)
[2] = target: rat serum albumin protein adduct with 4-HNE (rat) (UniProt P02770)
[3] = target: rabbit serum albumin protein adduct with 4-HNE (rabbit) (UniProt P49065)
[4] = target: human serum albumin protein adduct with 4-HNE (human) (UniProt P02768)
[5] = target: T1, rat serum albumin modified with glycolaldehyde (rat, UniProt P02770 25-608, non-enzymatically modified by incubation with glycolaldehyde (50 mM, 7 days); sites not stated)
T1 construct: also called Glycolaldehyde Rat-SA
Source text: (§1) Each mixed solution of substrate albumin and a protein-modifying substance was immobilized on a 96-well microplate, and was investigated for specificity to the anti-4-HNE antibody (#13-1-1) of the present invention by an ELISA method.

[6] = target: T2, human serum albumin modified with D-glucose (human, UniProt P02768 25-609, non-enzymatically modified by incubation with D-glucose (250 mM, 3 weeks); sites not stated)
T2 construct: also called D-glucose HSA
Source text: as §1

[7] = target: T3, bovine serum albumin modified with methylglyoxal (bovine, UniProt P02769 25-607, non-enzymatically modified by incubation with methylglyoxal (50 mM, 7 days); sites not stated)
T3 construct: also called Methylglyoxal BSA
Source text: as §1

[8] = target: T4, bovine serum albumin modified with crotonaldehyde (bovine, UniProt P02769 25-607, non-enzymatically modified by incubation with crotonaldehyde (CRA, 50 mM, 7 days); sites not stated)
T4 construct: also called CRA BSA
Source text: as §1

[9] = target: T5, human serum albumin modified with glyoxal (human, UniProt P02768 25-609, non-enzymatically modified by incubation with glyoxal (50 mM, 7 days); sites not stated)
T5 construct: also called Glyoxal HSA
Source text: as §1

[10] = target: T6, bovine serum albumin modified with glyoxal (bovine, UniProt P02769 25-607, non-enzymatically modified by incubation with glyoxal (50 mM, 7 days); sites not stated)
T6 construct: also called Glyoxal BSA
Source text: as §1

[11] = target: T7, rat serum albumin modified with glyceraldehyde (rat, UniProt P02770 25-608, non-enzymatically modified by incubation with glyceraldehyde (50 mM, 7 days); sites not stated)
T7 construct: also called Glyceraldehyde Rat-SA
Source text: as §1

[12] = target: T8, human serum albumin modified with malondialdehyde (human, UniProt P02768 25-609, non-enzymatically modified by incubation with malondialdehyde (MDA, 50 mM, 7 days); sites not stated)
T8 construct: also called MDA HSA
Source text: as §1

[13] = target: T9, rat serum albumin modified with methylglyoxal (rat, UniProt P02770 25-608, non-enzymatically modified by incubation with methylglyoxal (50 mM, 7 days); sites not stated)
T9 construct: also called Methylglyoxal Rat-SA
Source text: as §1

[14] = target: T10, rabbit serum albumin modified with malondialdehyde (rabbit, UniProt P49065 25-608, non-enzymatically modified by incubation with malondialdehyde (MDA, 50 mM, 7 days); sites not stated)
T10 construct: also called MDA Rabbit-SA
Source text: as §1

[15] = target: T11, human serum albumin modified with crotonaldehyde (human, UniProt P02768 25-609, non-enzymatically modified by incubation with crotonaldehyde (CRA, 50 mM, 7 days); sites not stated)
T11 construct: also called CRA HSA
Source text: as §1

[16] = target: T12, rabbit serum albumin modified with glycolaldehyde (rabbit, UniProt P49065 25-608, non-enzymatically modified by incubation with glycolaldehyde (50 mM, 7 days); sites not stated)
T12 construct: also called Glycolaldehyde Rabbit-SA
Source text: as §1

[17] = target: T13, bovine serum albumin modified with D-glucose (bovine, UniProt P02769 25-607, non-enzymatically modified by incubation with D-glucose (250 mM, 3 weeks); sites not stated)
T13 construct: also called D-glucose BSA
Source text: as §1

[18] = target: T14, bovine serum albumin modified with glyceraldehyde (bovine, UniProt P02769 25-607, non-enzymatically modified by incubation with glyceraldehyde (50 mM, 7 days); sites not stated)
T14 construct: also called Glyceraldehyde BSA
Source text: as §1

[19] = target: T15, rabbit serum albumin modified with crotonaldehyde (rabbit, UniProt P49065 25-608, non-enzymatically modified by incubation with crotonaldehyde (CRA, 50 mM, 7 days); sites not stated)
T15 construct: also called CRA Rabbit-SA
Source text: as §1

[20] = target: T16, rat serum albumin, unmodified (rat, UniProt P02770 25-608)
T16 construct: also called Rat-SA
Source text: as §1

[21] = target: T17, human serum albumin modified with glycolaldehyde (human, UniProt P02768 25-609, non-enzymatically modified by incubation with glycolaldehyde (50 mM, 7 days); sites not stated)
T17 construct: also called Glycolaldehyde HSA
Source text: as §1

[22] = target: T18, rabbit serum albumin modified with D-glucose (rabbit, UniProt P49065 25-608, non-enzymatically modified by incubation with D-glucose (250 mM, 3 weeks); sites not stated)
T18 construct: also called D-glucose Rabbit-SA
Source text: as §1

[23] = target: T19, rat serum albumin modified with glyoxal (rat, UniProt P02770 25-608, non-enzymatically modified by incubation with glyoxal (50 mM, 7 days); sites not stated)
T19 construct: also called Glyoxal Rat-SA
Source text: as §1

[24] = target: T20, human serum albumin modified with methylglyoxal (human, UniProt P02768 25-609, non-enzymatically modified by incubation with methylglyoxal (50 mM, 7 days); sites not stated)
T20 construct: also called Methylglyoxal HSA
Source text: as §1

[25] = target: T21, rabbit serum albumin modified with glyoxal (rabbit, UniProt P49065 25-608, non-enzymatically modified by incubation with glyoxal (50 mM, 7 days); sites not stated)
T21 construct: also called Glyoxal Rabbit-SA
Source text: as §1

[26] = target: T22, rat serum albumin modified with crotonaldehyde (rat, UniProt P02770 25-608, non-enzymatically modified by incubation with crotonaldehyde (CRA, 50 mM, 7 days); sites not stated)
T22 construct: also called CRA Rat-SA
Source text: as §1

[27] = target: T23, bovine serum albumin, unmodified (bovine, UniProt P02769 25-607)
T23 construct: also called BSA
Source text: as §1

[28] = target: T24, rat serum albumin modified with malondialdehyde (rat, UniProt P02770 25-608, non-enzymatically modified by incubation with malondialdehyde (MDA, 50 mM, 7 days); sites not stated)
T24 construct: also called MDA Rat-SA
Source text: as §1

[29] = target: T25, human serum albumin modified with glyceraldehyde (human, UniProt P02768 25-609, non-enzymatically modified by incubation with glyceraldehyde (50 mM, 7 days); sites not stated)
T25 construct: also called Glyceraldehyde HSA
Source text: as §1

[30] = target: T26, bovine serum albumin modified with malondialdehyde (bovine, UniProt P02769 25-607, non-enzymatically modified by incubation with malondialdehyde (MDA, 50 mM, 7 days); sites not stated)
T26 construct: also called MDA BSA
Source text: as §1

[31] = target: T27, rabbit serum albumin modified with glyceraldehyde (rabbit, UniProt P49065 25-608, non-enzymatically modified by incubation with glyceraldehyde (50 mM, 7 days); sites not stated)
T27 construct: also called Glyceraldehyde Rabbit-SA
Source text: as §1

[32] = target: T28, bovine serum albumin modified with glycolaldehyde (bovine, UniProt P02769 25-607, non-enzymatically modified by incubation with glycolaldehyde (50 mM, 7 days); sites not stated)
T28 construct: also called Glycolaldehyde BSA
Source text: as §1

[33] = target: T29, human serum albumin, unmodified (human, UniProt P02768 25-609)
T29 construct: also called HSA
Source text: as §1

[34] = target: T30, rabbit serum albumin, unmodified (rabbit, UniProt P49065 25-608)
T30 construct: also called Rabbit-SA
Source text: as §1

[35] = target: T31, rabbit serum albumin modified with methylglyoxal (rabbit, UniProt P49065 25-608, non-enzymatically modified by incubation with methylglyoxal (50 mM, 7 days); sites not stated)
T31 construct: also called Methylglyoxal Rabbit-SA
Source text: as §1

[36] = target: T32, rat serum albumin modified with D-glucose (rat, UniProt P02770 25-608, non-enzymatically modified by incubation with D-glucose (250 mM, 3 weeks); sites not stated)
T32 construct: also called D-glucose Rat-SA
Source text: as §1

T8 sequence (P02768 25-609 limits assumed): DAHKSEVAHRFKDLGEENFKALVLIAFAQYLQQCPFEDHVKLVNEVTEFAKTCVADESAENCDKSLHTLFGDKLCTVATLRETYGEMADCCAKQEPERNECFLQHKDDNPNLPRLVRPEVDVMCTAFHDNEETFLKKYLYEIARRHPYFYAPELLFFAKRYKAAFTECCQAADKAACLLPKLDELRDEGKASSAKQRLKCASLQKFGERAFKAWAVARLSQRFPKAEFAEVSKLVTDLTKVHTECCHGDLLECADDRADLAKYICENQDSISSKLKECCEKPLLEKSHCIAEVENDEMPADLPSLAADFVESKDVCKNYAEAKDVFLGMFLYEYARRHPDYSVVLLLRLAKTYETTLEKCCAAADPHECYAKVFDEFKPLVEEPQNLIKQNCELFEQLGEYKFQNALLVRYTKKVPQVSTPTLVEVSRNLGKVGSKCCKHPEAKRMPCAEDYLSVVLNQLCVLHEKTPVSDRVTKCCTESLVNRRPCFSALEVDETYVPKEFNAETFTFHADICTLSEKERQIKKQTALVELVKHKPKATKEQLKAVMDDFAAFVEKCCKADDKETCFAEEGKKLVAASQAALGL
T5 sequence (P02768 25-609 limits assumed): as above
T29 sequence (P02768 25-609 limits assumed): as above
Chain of human serum albumin protein adduct with 4-HNE (human) (P02768 25-609 limits assumed, form in doubt): as the sequence (P02768 25-609 limits assumed) above
T2 sequence (P02768 25-609 limits assumed): as above
T25 sequence (P02768 25-609 limits assumed): as above
T11 sequence (P02768 25-609 limits assumed): as above
T20 sequence (P02768 25-609 limits assumed): as above
T17 sequence (P02768 25-609 limits assumed): as above
T14 sequence (P02769 25-607 limits assumed): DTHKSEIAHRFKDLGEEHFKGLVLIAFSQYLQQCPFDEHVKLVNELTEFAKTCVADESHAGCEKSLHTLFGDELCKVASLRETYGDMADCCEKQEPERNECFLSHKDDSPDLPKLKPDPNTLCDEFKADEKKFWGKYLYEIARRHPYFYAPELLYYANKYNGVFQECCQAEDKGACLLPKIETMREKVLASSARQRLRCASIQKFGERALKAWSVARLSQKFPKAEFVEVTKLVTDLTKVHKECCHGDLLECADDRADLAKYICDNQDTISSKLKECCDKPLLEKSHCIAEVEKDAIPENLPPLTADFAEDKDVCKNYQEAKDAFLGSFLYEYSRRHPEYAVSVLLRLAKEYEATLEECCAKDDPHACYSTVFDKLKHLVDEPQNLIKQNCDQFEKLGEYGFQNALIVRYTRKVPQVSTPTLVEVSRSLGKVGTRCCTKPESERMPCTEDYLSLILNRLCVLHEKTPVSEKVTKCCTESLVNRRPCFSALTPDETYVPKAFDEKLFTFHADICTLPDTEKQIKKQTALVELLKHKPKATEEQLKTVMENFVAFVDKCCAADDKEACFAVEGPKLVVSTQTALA
T4 sequence (P02769 25-607 limits assumed): as above
T3 sequence (P02769 25-607 limits assumed): as above
T23 sequence (P02769 25-607 limits assumed): as above
T28 sequence (P02769 25-607 limits assumed): as above
Chain of bovine serum albumin protein adduct with 4-HNE (bovine) (P02769 25-607 limits assumed, form in doubt): as the sequence (P02769 25-607 limits assumed) above
T6 sequence (P02769 25-607 limits assumed): as above
T13 sequence (P02769 25-607 limits assumed): as above
T26 sequence (P02769 25-607 limits assumed): as above
T7 sequence (P02770 25-608 limits assumed): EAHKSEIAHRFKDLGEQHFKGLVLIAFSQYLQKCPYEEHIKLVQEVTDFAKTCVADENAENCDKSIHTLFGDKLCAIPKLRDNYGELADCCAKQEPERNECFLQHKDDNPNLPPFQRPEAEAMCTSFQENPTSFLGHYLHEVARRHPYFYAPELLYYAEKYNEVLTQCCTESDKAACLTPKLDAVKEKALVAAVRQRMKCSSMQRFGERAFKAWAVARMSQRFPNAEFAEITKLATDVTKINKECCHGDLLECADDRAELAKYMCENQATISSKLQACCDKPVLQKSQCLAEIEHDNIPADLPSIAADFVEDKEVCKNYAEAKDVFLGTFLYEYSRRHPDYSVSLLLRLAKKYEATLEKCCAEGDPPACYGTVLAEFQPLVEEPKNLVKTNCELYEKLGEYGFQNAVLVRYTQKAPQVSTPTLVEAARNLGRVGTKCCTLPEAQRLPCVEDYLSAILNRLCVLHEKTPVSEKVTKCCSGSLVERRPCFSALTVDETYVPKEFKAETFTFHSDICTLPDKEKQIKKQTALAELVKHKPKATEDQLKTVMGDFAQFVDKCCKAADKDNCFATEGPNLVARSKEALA
T1 sequence (P02770 25-608 limits assumed): as above
T16 sequence (P02770 25-608 limits assumed): as above
T24 sequence (P02770 25-608 limits assumed): as above
T22 sequence (P02770 25-608 limits assumed): as above
T9 sequence (P02770 25-608 limits assumed): as above
Chain of rat serum albumin protein adduct with 4-HNE (rat) (P02770 25-608 limits assumed, form in doubt): as the sequence (P02770 25-608 limits assumed) above
T32 sequence (P02770 25-608 limits assumed): as above
T19 sequence (P02770 25-608 limits assumed): as above
T21 sequence (P49065 25-608 limits assumed): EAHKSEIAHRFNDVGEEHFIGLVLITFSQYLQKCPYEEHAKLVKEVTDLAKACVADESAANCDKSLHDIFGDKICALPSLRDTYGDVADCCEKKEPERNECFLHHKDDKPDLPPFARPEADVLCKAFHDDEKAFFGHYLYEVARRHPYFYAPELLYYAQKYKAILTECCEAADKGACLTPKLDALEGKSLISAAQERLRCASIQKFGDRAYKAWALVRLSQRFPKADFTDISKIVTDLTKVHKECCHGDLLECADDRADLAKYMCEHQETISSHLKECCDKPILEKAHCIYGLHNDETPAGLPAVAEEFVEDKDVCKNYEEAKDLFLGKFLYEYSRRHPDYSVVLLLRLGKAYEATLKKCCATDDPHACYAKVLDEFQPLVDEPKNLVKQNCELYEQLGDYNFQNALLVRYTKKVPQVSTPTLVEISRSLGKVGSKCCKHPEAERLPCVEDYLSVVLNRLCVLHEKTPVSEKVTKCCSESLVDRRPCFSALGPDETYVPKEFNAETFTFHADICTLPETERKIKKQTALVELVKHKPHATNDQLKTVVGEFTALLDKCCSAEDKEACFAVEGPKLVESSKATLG
T27 sequence (P49065 25-608 limits assumed): as above
Chain of rabbit serum albumin protein adduct with 4-HNE (rabbit) (P49065 25-608 limits assumed, form in doubt): as the sequence (P49065 25-608 limits assumed) above
T10 sequence (P49065 25-608 limits assumed): as above
T15 sequence (P49065 25-608 limits assumed): as above
T30 sequence (P49065 25-608 limits assumed): as above
T12 sequence (P49065 25-608 limits assumed): as above
T18 sequence (P49065 25-608 limits assumed): as above
T31 sequence (P49065 25-608 limits assumed): as above

ELISA reading (name and unit not given) [1]: 1.11
ELISA reading (name and unit not given) [2]: 1.37
ELISA reading (name and unit not given) [3]: 0.663
ELISA reading (name and unit not given) [4]: 0.956
ELISA reading (name and unit not given) [5]: 0.07
ELISA reading (name and unit not given) [6]: 0.068
ELISA reading (name and unit not given) [7]: 0.073
ELISA reading (name and unit not given) [8]: 0.156
ELISA reading (name and unit not given) [9]: 0.065
ELISA reading (name and unit not given) [10]: 0.066
ELISA reading (name and unit not given) [11]: 0.069
ELISA reading (name and unit not given) [12]: 0.065
ELISA reading (name and unit not given) [13]: 0.074
ELISA reading (name and unit not given) [14]: 0.07
ELISA reading (name and unit not given) [15]: 0.077
ELISA reading (name and unit not given) [16]: 0.067
ELISA reading (name and unit not given) [17]: 0.081
ELISA reading (name and unit not given) [18]: 0.07
ELISA reading (name and unit not given) [19]: 0.074
ELISA reading (name and unit not given) [20]: 0.088
ELISA reading (name and unit not given) [21]: 0.071
ELISA reading (name and unit not given) [22]: 0.069
ELISA reading (name and unit not given) [23]: 0.073
ELISA reading (name and unit not given) [24]: 0.069
ELISA reading (name and unit not given) [25]: 0.073
ELISA reading (name and unit not given) [26]: 0.141
ELISA reading (name and unit not given) [27]: 0.15
ELISA reading (name and unit not given) [28]: 0.08
ELISA reading (name and unit not given) [29]: 0.068
ELISA reading (name and unit not given) [30]: 0.074
ELISA reading (name and unit not given) [31]: 0.069
ELISA reading (name and unit not given) [32]: 0.071
ELISA reading (name and unit not given) [33]: 0.118
ELISA reading (name and unit not given) [34]: 0.114
ELISA reading (name and unit not given) [35]: 0.072
ELISA reading (name and unit not given) [36]: 0.076
B1: anti-4-HNE monoclonal antibody (#13-1-1) (antibody, V domains shown)
VH: EVKLLASGGGLVQPGGSMRLSCAASGFTFTDFYMYWIRQPAGKAPEWLGFIRNKANGYTTEYNPSVKGRFTISRDNTQNMLYLQMNTLRAEDTATYYCALGYYGYNYNWFAYWGQGTLVTVSS
VL: ETVMTQSPTSMSTSIGERVTLNCRASQSVGINVDWYQQTPGQSPKMLIYGASNRHTGVPDRFTGSGFGRDFTLTISNMEAEDLGVYYCLQYASIPYTFGAGTKLELKR
notes: Rat hybridoma monoclonal antibody; also called anti-4-HNE antibody (#13-1-1); monoclonal antibody produced from Rat hybridoma #13-1-1
